In patent EP4792830A2:
Residue numbers refer to the chain shown, from its start. Read-outs that look alike come from different tables or passages of the source.

Assays:
[1] = biological target: endogenous TFPI in human plasma (human), P10646; assay: cell-based or functional assay
[2] = biological target: endogenous TFPI in human plasma (human), P10646; assay: cell-based or functional assay; remark: listed apart in the source

B1: hz4D8 (antibody, human IgG1, kappa)
heavy: EVQLVESGGGLVQPGGSLRLSCAASGYTFTDYNLDWVRQAPGKGLEWVADINPINGATLYNQKFKGRFTISRDQAKNSLYLQMNSLRAEDTAVYYCARYYGDYDAMDYWGQGTLVTVSSASTKGPSVFPLAPSSKSTSGGTAALGCLVKDYFPEPVTVSWNSGALTSGVHTFPAVLQSSGLYSLSSVVTVPSSSLGTQTYICNVNHKPSNTKVDKKVEPKSCDKTHTCPPCPAPEAAGAPSVFLFPPKPKDTLMISRTPEVTCVVVDVSHEDPEVKFNWYVDGVEVHNAKTKPREEQYNSTYRVVSVLTVLHQDWLNGKEYKCKVSNKALPAPIEKTISKAKGQPREPQVYTLPPSREEMTKNQVSLTCLVKGFYPSDIAVEWESNGQPENNYKTTPPVLDSDGSFFLYSKLTVDKSRWQQGNVFSCSVMHEALHNHYTQKSLSLSPG
light: DIQMTQSPSSLSASVGDRVTITCKASQDVHTAVAWYQQKPGKAPKLLIYWASTRHTGVPSRFSGSGSGTDYTLTISSLQPEDFATYYCQQHYTTPYTFGQGTKLEIKRTVAAPSVFIFPPSDEQLKSGTASVVCLLNNFYPREAKVQWKVDNALQSGNSQESVTEQDSKDSTYSLSSTLTLSKADYEKHKVYACEVTHQGLSSPVTKSFNRGEC
Q: What does the source list for B1?
A: Dilute PT EC50 [1]: 0.47 nM; EC50 (dilute prothrombin time, clotting time) [1]: 0.47 nM; TGA Velocity EC50 [1]: 3.9 nM; TGA Velocity Index at 20 nM [1]: 15.7

B2: 2A8-200 (antibody, human IgG1, lambda)
heavy: QVQLVESGGGLVQPGGSLRLSCAASGFTFRSYGMDWVRQAPGKGLEWVSSIRGSRSSTYYADSVKGRFTISRDNSKNTLYLQMNSLRAEDTAVYYCARLYRYWFDYWGQGTLVTVSSASTKGPSVFPLAPSSKSTSGGTAALGCLVKDYFPEPVTVSWNSGALTSGVHTFPAVLQSSGLYSLSSVVTVPSSSLGTQTYICNVNHKPSNTKVDKKVEPKSCDKTHTCPPCPAPEAAGAPSVFLFPPKPKDTLMISRTPEVTCVVVDVSHEDPEVKFNWYVDGVEVHNAKTKPREEQYNSTYRVVSVLTVLHQDWLNGKEYKCKVSNKALPAPIEKTISKAKGQPREPQVYTLPPSREEMTKNQVSLTCLVKGFYPSDIAVEWESNGQPENNYKTTPPVLDSDGSFFLYSKLTVDKSRWQQGNVFSCSVMHEALHNHYTQKSLSLSPG
light: DIELTQPPSVSVAPGQTARISCSGDNLRNYYAHWYQQKPGQAPVVVIFYDVNRPSGIPERFSGSNSGNTATLTISGTQAEDEADYYCQSWWDGVPVFGGGTKLTVLGQPKAAPSVTLFPPSSEELQANKATLVCLISDFYPGAVTVAWKADSSPVKAGVETTTPSKQSNNKYAASSYLSLTPEQWKSHRSYSCQVTHEGSTVEKTVAPTECS
Q: Which Dilute PT EC50 [1] does the source give for B2 here?
A: 1 nM

B3: TFPI-24 (antibody, human IgG1, lambda)
heavy: EVQLVESGGGSVQPGRSLRLSCAVSGLTIDNYAMQWVRQRPGKGLEWVSGISGNSRSIGYADSVKGRLTISRDNAKNSLYLQIDSLRADDTALYYCAIFLHESDYWGQGTLVTVSSASTKGPSVFPLAPSSKSTSGGTAALGCLVKDYFPEPVTVSWNSGALTSGVHTFPAVLQSSGLYSLSSVVTVPSSSLGTQTYICNVNHKPSNTKVDKKVEPKSCDKTHTCPPCPAPEAAGAPSVFLFPPKPKDTLMISRTPEVTCVVVDVSHEDPEVKFNWYVDGVEVHNAKTKPREEQYNSTYRVVSVLTVLHQDWLNGKEYKCKVSNKALPAPIEKTISKAKGQPREPQVYTLPPSREEMTKNQVSLTCLVKGFYPSDIAVEWESNGQPENNYKTTPPVLDSDGSFFLYSKLTVDKSRWQQGNVFSCSVMHEALHNHYTQKSLSLSPG
light: not shown
Q: B3 was tested. Which EC50 (dilute prothrombin time, clotting time) [1] did it give?
A: 0.57 nM

Q: And the TGA Velocity Index at 20 nM [1]?
A: 23.2

B4: TFPI-118 (antibody, human IgG1, lambda)
heavy: B3 heavy with S11L, R40A, L68F, I83M, D84N, D89E
light: not shown
Q: Which results are given for B4?
A: Dilute PT EC50 [1]: 1.16 nM; EC50 (dilute prothrombin time, clotting time) [1]: 1.16 nM; TGA Velocity EC50 [1]: 7.72 nM

B5: 4D8.b1 (antibody, mouse IgG1, kappa)
heavy: EVLLQQSGPELVKPGASVKIPCKASGYTFTDYNLDWVKQSHGKSLEWIGDINPINGATLYNQKFKGKATLTVDQSSSTAYMELRSLTSEDTAVYYCSIYYGDYDAMDYWGQGASVTVSSAKTTPPSVYPLAPGSAAQTNSMVTLGCLVKGYFPEPVTVTWNSGSLSSGVHTFPAVLQSDLYTLSSSVTVPSSTWPSETVTCNVAHPASSTKVDKKIVPRDCGCKPCICTVPEVSSVFIFPPKPKDVLTITLTPKVTCVVVDISKDDPEVQFSWFVDDVEVHTAQTQPREEQFNSTFRSVSELPIMHQDWLNGKEFKCRVNSAAFPAPIEKTISKTKGRPKAPQVYTIPPPKEQMAKDKVSLTCMITDFFPEDITVEWQWNGQPAENYKNTQPIMDTDGSYFVYSKLNVQKSNWEAGNTFTCSVLHEGLHNHHTEKSLSHSPGK
light: DIVMTQSHKFMSTSVGDRVSITCKASQDVHTAVAWYQQKPGQSPRLLIYWASTRHTGVPDRFTGCGSGTDYTLTISSVQAEDLALYYCQQHYTTPYTFGGGTKLEMKADAAPTVSIFPPSSEQLTSGGASVVCFLNNFYPKDINVKWKIDGSERQNGVLNSWTDQDSKDSTYSMSSTLTLTKDEYERHNSYTCEATHKTSTSPIVKSFNRNEC
Q: How did the TGA Velocity Index at 20 nM [2] turn out when B5 was run?
A: 26.3

Q: What about the TGA Velocity Index at 20 nM [1] of the same binder?
A: 13.5
